This is an account of results in PMC3701943.

The assay concerns the target W590S murine ABCA1-GFP fusion (murine) (UniProt P41233). The experiment in a line: flow cytometry on cells. In general terms: Flow cytometry measures light scatter and fluorescence of single cells or particles in a stream.
UniProt P41233, sequence (P41233 whole entry W590S, the tested form may be a part): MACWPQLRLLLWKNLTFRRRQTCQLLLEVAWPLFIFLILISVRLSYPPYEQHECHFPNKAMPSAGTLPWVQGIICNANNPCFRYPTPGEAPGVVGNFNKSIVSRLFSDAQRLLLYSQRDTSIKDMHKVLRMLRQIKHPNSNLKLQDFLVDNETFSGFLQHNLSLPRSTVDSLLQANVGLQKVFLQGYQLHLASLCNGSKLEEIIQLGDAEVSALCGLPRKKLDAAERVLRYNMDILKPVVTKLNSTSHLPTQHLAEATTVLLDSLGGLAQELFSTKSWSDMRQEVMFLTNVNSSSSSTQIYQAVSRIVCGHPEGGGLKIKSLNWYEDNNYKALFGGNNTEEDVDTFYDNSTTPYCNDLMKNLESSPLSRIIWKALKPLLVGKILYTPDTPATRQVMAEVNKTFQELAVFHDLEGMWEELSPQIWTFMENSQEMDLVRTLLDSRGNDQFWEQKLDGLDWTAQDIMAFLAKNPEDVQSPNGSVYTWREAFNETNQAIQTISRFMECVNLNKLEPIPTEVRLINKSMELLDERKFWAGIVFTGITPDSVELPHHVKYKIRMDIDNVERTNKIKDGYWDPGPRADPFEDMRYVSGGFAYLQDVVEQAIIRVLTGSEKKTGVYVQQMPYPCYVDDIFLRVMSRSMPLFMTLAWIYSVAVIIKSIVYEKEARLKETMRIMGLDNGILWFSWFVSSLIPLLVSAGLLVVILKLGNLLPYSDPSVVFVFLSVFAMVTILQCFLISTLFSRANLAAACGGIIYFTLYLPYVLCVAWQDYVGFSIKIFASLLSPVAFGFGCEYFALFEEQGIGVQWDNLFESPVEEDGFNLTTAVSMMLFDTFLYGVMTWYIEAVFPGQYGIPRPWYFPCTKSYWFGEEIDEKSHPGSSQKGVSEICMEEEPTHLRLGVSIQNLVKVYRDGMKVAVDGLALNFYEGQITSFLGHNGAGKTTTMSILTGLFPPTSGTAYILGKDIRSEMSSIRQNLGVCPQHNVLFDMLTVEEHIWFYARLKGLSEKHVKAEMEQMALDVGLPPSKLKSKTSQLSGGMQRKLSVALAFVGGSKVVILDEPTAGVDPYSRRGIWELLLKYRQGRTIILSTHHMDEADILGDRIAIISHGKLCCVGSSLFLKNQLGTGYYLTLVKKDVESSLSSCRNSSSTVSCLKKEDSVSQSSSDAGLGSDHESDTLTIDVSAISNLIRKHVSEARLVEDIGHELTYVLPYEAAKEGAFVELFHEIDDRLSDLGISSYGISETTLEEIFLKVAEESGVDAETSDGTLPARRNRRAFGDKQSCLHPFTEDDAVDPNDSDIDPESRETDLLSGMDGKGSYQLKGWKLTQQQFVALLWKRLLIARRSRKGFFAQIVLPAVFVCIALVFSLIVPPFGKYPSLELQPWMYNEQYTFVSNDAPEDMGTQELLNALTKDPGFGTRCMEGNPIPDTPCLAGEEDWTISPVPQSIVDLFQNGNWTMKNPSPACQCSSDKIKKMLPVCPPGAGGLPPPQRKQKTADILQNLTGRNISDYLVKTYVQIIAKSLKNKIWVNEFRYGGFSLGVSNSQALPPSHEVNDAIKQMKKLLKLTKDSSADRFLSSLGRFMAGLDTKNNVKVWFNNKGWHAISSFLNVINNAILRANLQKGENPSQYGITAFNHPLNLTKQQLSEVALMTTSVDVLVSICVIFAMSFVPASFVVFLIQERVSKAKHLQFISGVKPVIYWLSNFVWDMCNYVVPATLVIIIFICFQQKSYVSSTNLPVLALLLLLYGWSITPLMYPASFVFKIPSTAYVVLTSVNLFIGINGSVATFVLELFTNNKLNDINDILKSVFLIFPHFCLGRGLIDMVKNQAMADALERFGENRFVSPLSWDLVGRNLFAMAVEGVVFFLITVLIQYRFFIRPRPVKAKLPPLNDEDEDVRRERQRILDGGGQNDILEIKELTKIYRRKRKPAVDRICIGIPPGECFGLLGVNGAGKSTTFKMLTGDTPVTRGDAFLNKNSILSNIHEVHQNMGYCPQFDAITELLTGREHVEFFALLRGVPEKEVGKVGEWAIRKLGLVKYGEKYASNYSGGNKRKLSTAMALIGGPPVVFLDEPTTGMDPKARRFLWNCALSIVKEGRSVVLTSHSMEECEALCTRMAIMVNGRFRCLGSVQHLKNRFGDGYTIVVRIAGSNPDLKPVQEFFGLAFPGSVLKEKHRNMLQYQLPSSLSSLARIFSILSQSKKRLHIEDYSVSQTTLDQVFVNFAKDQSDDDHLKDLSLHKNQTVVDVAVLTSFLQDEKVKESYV

“Alexa647-labeled apoAI (from UniProt P02647 25-267) (ligand)”: the fold apoAI binding against control HEK cells worked out at 6 fold.
